From patent US20110124556 (published 2011)
Where two headings read alike, the source gives them in different places. Non-standard residues stand in square brackets, D forms with d. No end group written: not given here. *: point of attachment. Biotin = O=C1N[C@H]2[C@H](CS[C@H]2CCCCC(=O)*)N1; Bpa = N[C@@H](Cc1ccc(C(=O)c2ccccc2)cc1)C(=O)O

Key:
[1] = target: T1, human insulin receptor (HIR) (human, UniProt P06213); experiment: competition
[2] = target: T1, human insulin receptor (HIR); experiment: competition; remark: listed apart in the source
[3] = target: T1, human insulin receptor (HIR); experiment: competition; remark: listed apart in the source
[4] = target: T1, human insulin receptor (HIR); experiment: competition; remark: listed apart in the source
sIR = sIR (human, UniProt P06213); experiment: FP
sIR-Fc = sIR-Fc (human, UniProt P06213); experiment: competition, TR-FRET vs b-RP9
[5] = target: T1, human insulin receptor (HIR); experiment: competition; remark: listed apart in the source

Kd [1] | Binder | other results
260 nM | S233 (listing feature) chain 1: FHENFYDWFVRQVSKKX chain 2: SDGFYNAIELLSX | –
– | MADYKDDDDKWLDQEWAWVQCEVYGRGCPSAAAGAPVPYPDPLEPRPG [RB540 (D8)] | Kd [2]: ~100 nM
16000 nM | QLEEEWAGVQCEVYGRECPS [S226] | –
20 nM | HDPFYSMMKSLLK [S120] | –
370 nM | PLRESRNFYDWFVQQLE [S366] | –
190 nM | IQGWEPFYGWFDDVVAQMFEE [S264] | –
26 nM | S546 (not fully specified (bridges); cysteine pairing not given here; also: chains 1 and 2 form one continuous chain) chain 1: SLEEEWAQVECEV chain 2: [Bpa]GRGCPSGSLDESFYDWFERQ[Bpa]GK(Biotin) | –
> 2000 nM | FHENFYDWAVRQVSKK [S223] | –
99 nM | S440 (peptide) chain 1: ESFYDWFERQLGGGGK chain 2: EWAWVQCEVYGRGCPS | –
– | RB517 (protein) DYKDDDDKHLCVLEELFWGASLFGYCSGGGSGGSHLCVLEELFWGASLFGYCSGAAAGAPVPYPDPLEPRAA | Kd [2]: 60 nM
– | FHENFYDWFVQRVSKK [H2C (D117)] | IC50 [3]: 700 nM
– | GSLDESFYDWFERQLGKK [S371 (RP9)] | Kd [4]: 830 nM
– | S414 (not fully specified; listing feature) chain 1: ESFYDWFERQLGKX chain 2: ESFYDWFERQLGKX | IC50 (sIR): 0.2 nM; IC50 (sIR-Fc): 184 nM
16 nM | S255 (listing feature) chain 1: SDGFYNAIELLSGGGX chain 2: SDGFYNAIELLSGGGX | –
1.3 nM | HHHHHHKLDQEWAWVQCEVYGRGCPSESFYDWFERQLG [S481] | –
– | S374 (not fully specified; listing feature) chain 1: XGSLDESFYDWFERQLGKK chain 2: XGSLDESFYDWFERQLGKK | Kd [4]: 180 nM
– | S415 (listing feature) chain 1: ESFYDWFERQLGKX chain 2: ESFYDWFERQLGKX | Kd [5]: 100 nM
200 nM | SGSLDESFYDWFERQLGKK [S372] | –
0.037 nM | SLEEEWAWVECEVYGRGCPSGSLDESFYDWFERQL [S532] | –
0.006 nM | SIEEEWAQIKCDVWGRGCPSESFYDWFERQL [S517] | –
0.018 nM | SLEEEWAQIECEVWGRGCSGSLDESFYDWFERQL [S561] | –
– | 539 (D8-6aa-RP9) (protein) MADYKDDDDKWLDQEWAWVQCEVYGRGCPSGGSGGSGSLDESFYDWFERQLGKKAAAGAPVPYPDPLEPRPG | Kd [2]: 0.7 nM
